Data taken from publication PMC6417941.

Biological target: Thermococcus kodakarensis RNA polymerase (Thermococcus kodakarensis)

elongation rate on histone-bound (HTkB) templates, against no factor: 1.5 fold
B1: Spt4-Spt5 complex (complex)
chain 1: MAKERACRHCHYITTEDRCPVCGSRDLSDDWFDLVIVLDVESRIAKKLRESIPEAAKVPGKYAIRVR
chain 2: MAEGKIFTVSVTVGQETTTANLIYSKAKTYNLPLYAILSPSKVKGYIFIEAPNKSAVEEAIRGIRHAKRVLPGEIPFSEIEHFLEEKPAVSGFEPGDIVELIAGPFKGEKAKVVRVDESKDEIVVELVSSVVPIPVTVRGEYVRLISKRQKE
